Assays:
[1] = target: T1, human EGFR (cell surface) (human, UniProt P00533 25-1210); assay: FACS competition, competitor W5626-2C2-z22; upper panel 'Binning with W5626-2C2-z22'; cells not named on the sheet, A431 in the example
T1 construct: whole, on cells; also called W562-CHO-K1.hPro1.E9 cells; A431 cells

[2] = target: T1, human EGFR (cell surface); assay: FACS competition, competitor W5626-2C10-z5; lower panel 'Binning with W5626-2C10-z5'; cells not named on the sheet, A431 in the example
[3] = target: T2, human EGFRvIII (cell surface) (human, UniProt P00533 25-1210); assay: FACS on EGFRvIII transfected cells, anti-c-Myc-biotin and streptavidin-PE
T2 construct: whole, on cells; also called hEGFRIII; EGFR variant III

[4] = target: T3, HSA (UniProt P02768 25-609); assay: ELISA, antigen coated at 2 µg/mL, anti-cMyc-HRP detection
Procedure: (§1) Non-specific binding ELISA was performed in 96-well high binding plates (Nunc-Immuno Plate, Thermo Scientific). The plate was coated with various antigens at 2 μg/mL overnight at 4° C. […] The plates were subsequently incubated with the secondary antibody Goat anti-cMyc-HRP (Bethyl) for additional 1 hour. The HRP signal was detected by adding TMB substrate and the reaction was stopped after 12 minutes using 2M HCl. The absorbance at 450 nm was read using a microplate reader (Molecular Device). All incubation steps were performed at room temperature. The plate was washed with PBST (0.05% Tween20-PBS) between each step.

[5] = target: T4, HER3.his (Homo sapiens (Human), UniProt P21860 20-643); assay: as above
Procedure: as §1

[6] = target: T5, 4-1BB.his (Homo sapiens (Human), UniProt Q07011 24-186); assay: as above
T5 sequence (Q07011 24-186 limits assumed): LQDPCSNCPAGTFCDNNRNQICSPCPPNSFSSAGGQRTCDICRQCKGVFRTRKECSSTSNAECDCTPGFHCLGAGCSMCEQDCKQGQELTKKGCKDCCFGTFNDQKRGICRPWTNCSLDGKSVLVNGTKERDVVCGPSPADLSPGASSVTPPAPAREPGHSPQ
Procedure: as §1

[7] = target: T3, HSA; assay: non-specific binding ELISA, 10 µg/ml VHH on coated antigen
Procedure: as §1

[8] = target: PD-1.his; assay: as above
Chain of PD-1.his (Q15116 25-170): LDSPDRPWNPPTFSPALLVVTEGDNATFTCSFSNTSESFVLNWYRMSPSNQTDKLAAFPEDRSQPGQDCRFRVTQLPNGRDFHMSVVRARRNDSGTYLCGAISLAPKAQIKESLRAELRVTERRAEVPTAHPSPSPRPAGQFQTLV
Procedure: as §1

[9] = target: CD22.his; assay: as above
Procedure: as §1

[10] = target: CD40; assay: as above
Chain of CD40 (P25942 21-193): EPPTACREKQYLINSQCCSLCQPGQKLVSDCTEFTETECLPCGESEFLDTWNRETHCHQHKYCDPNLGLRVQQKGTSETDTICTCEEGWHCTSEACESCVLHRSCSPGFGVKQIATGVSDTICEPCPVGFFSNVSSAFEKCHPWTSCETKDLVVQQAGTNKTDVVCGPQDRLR
Procedure: as §1

[11] = target: OX40.his; assay: as above
Chain of OX40.his (P43489 29-214): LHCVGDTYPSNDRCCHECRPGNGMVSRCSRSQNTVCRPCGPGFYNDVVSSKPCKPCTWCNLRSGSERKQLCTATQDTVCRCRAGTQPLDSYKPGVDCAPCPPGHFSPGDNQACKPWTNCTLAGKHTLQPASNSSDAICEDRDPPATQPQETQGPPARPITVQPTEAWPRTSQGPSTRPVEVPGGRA
Procedure: as §1

[12] = target: W317-hPro1.ECD.his; assay: as above
Procedure: as §1

[13] = target: CTLA4.his; assay: as above
Chain of CTLA4.his (P16410 36-161): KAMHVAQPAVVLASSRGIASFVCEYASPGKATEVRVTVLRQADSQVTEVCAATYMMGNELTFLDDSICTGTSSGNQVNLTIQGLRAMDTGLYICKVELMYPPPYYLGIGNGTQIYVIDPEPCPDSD
Procedure: as §1

[14] = target: CD147; assay: as above
Procedure: as §1

[15] = target: FGFR.his; assay: as above
Procedure: as §1

[16] = target: VEGF.his; assay: as above
Procedure: as §1

[17] = target: CD3.his; assay: as above
Procedure: as §1

[18] = target: T4, HER3.his; assay: as above
Procedure: as §1

[19] = target: T5, 4-1BB.his; assay: as above
Procedure: as §1

[20] = target: Factor Eight; assay: as above
Procedure: as §1

B1: W5626-2C2.VHH (VHH)
VHH: EVQLVESGGGLVQAGDSLRLSCAASGRTHSNYVMGWFRQAPGQEREFVAGISRTYGNTYYRDSVEGRFTISVDNPKNTVYLQMNSLKPEDTAVYYCAADPTRSEVILTTSHRYVYWGQGTLVTVSS
notes: c-Myc and his-tagged VHH fragment made in E. coli BL21; not shown: 6-his and c-Myc tags fused at the C-terminus
With B1 the “IC50 (read off the curve)” value [1] was roughly 2 nM, the “IC50 (read off the curve)” value [2] was roughly 1 nM and the EC50 [3] was 2.41 nM.

B2: W5626-2C2-z22 (VHH) (VHH)
VHH: EVQLVESGGGLVQPGGSLRLSCAASGRTHSNYVMGWFRQAPGQEREFVAGISRTYGNTYYRDSVEGRFTISRDNSKNTLYLQMNSLRAEDTAVYYCAADPTRSEVILTTSHRYVYWGQGTLVTVSS
notes: also called c-Myc and his-tagged VHH fragment of W5626-2C2-z22; not shown: c-Myc and his tags
B2: no binding (tested: 10 µg/ml) [4]; no binding (tested: 10 µg/ml) [5]; no binding (tested: 10 µg/ml) [6]. The “OD A450” value [7] was 0.07 OD A450, the “OD A450” value [8] was 0.06 OD A450 and the “OD A450” value [9] was 0.06 OD A450. The “OD A450” value [10] was 0.06 OD A450, the “OD A450” value [11] was 0.05 OD A450 and the “OD A450” value [12] was 0.07 OD A450. The “OD A450” value [13] was 0.07 OD A450, the “OD A450” value [14] was 0.06 OD A450 and the “OD A450” value [15] was 0.05 OD A450. The “OD A450” value [16] was 0.07 OD A450, the “OD A450” value [17] was 0.06 OD A450 and the “OD A450” value [18] was 0.06 OD A450. For the same binder, the “OD A450” value [19] was 0.06 OD A450 and the “OD A450” value [20] was 0.05 OD A450.

B3: W5626-2C10.VHH (VHH)
VHH: AVQLVESGGGLVQAGGSLTLSCAASGRTFSSYAMGWFRQAPGKEREFVAADRWSGGNTRYADSVKGRFTISRDNAKNTVYLQMNSLKPEDTAVYYCAATYLSSDYEWGVPPKAYDYDYWGQGTQVTVSS
notes: as for B1
For B3, the “IC50 (read off the curve)” value [1] was roughly 1 nM, the “IC50 (read off the curve)” value [2] was roughly 1 nM and the EC50 [3] was 1.08 nM.

B4: W5626-2C10-z5 (VHH) (VHH)
VHH: AVQLVESGGGLVQPGGSLTLSCAASGRTFSSYAMGWFRQAPGKEREFVAADRWSGGNTRYADSVKGRFTISRDNAKNTLYLQMNSLRAEDTAVYYCAATYLSSDYEWGVPPKAYDYDYWGQGTLVTVSS
notes: also called c-Myc and his-tagged VHH fragment of W5626-2C10-z5; not shown: c-Myc and his tags
B4: no binding (tested: 10 µg/ml) [4]; no binding (tested: 10 µg/ml) [5]; no binding (tested: 10 µg/ml) [6]. For the same binder, the “OD A450” value [7] was 0.05 OD A450, the “OD A450” value [8] was 0.04 OD A450 and the “OD A450” value [9] was 0.05 OD A450. For the same binder, the “OD A450” value [10] was 0.05 OD A450, the “OD A450” value [11] was 0.04 OD A450 and the “OD A450” value [12] was 0.05 OD A450. The “OD A450” value [13] was 0.04 OD A450, the “OD A450” value [14] was 0.04 OD A450 and the “OD A450” value [15] was 0.05 OD A450. For the same binder, the “OD A450” value [16] was 0.05 OD A450, the “OD A450” value [17] was 0.04 OD A450 and the “OD A450” value [18] was 0.04 OD A450. For the same binder, the “OD A450” value [19] was 0.05 OD A450 and the “OD A450” value [20] was 0.04 OD A450.

— patent US20210115146A1 (WUXI BIOLOGICS IRELAND, published 2021)
